# Laboratory results: IntAct's records for PubMed 29039417
# B1: BBSome-interacting protein 1 (Homo sapiens), A8MTZ0 (parent)
# chain: MLKAAAKRPELSGKNTISNNSDMAEVKSMFREVLPKQGPLFVEDIMTMVLCKPKLLPLKSLTLEKLEKMHQAAQNTIRQQEMAEKDQRQITH
# partner: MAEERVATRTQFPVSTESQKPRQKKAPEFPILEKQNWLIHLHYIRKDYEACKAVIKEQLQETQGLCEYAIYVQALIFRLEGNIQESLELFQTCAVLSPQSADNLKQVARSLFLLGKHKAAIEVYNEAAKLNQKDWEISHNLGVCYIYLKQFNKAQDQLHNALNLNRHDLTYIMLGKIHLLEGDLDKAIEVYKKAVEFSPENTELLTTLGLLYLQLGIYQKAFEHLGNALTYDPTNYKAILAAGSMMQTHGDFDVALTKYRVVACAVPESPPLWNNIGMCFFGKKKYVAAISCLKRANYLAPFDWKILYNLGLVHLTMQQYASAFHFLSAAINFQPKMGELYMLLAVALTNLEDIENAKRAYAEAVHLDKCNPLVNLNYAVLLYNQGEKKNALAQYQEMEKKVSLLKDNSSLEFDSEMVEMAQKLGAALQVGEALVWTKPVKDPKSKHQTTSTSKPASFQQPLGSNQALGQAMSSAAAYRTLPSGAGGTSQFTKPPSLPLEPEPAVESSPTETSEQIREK
# Variants of: B1
# Conditions: with bbs4_human BBS4, Q96RK4
row,Variant,effect of a mutation on the interaction
1,M46K,with no effect
2,M46A,with no effect
3,M46F,disrupting interaction strength
4,M46E,with no effect
5,A4E,with no effect
6,A4K,with no effect
7,A5E,with no effect
8,A5K,with no effect
9,V42K,with no effect
10,V42E,with no effect
11,V42A,with no effect
12,V33E,with no effect
13,V33A,with no effect
14,V33K,with no effect
15,L34E,with no effect
16,L34H,disrupting interaction strength
17,L34A,disrupting interaction strength
18,L34K,with no effect
19,L34P,disrupting interaction strength
20,L34D,disrupting interaction strength
21,L34R,disrupting interaction strength
22,E10A,with no effect
23,E10K,with no effect
24,L50A,with no effect
25,L50K,with no effect

row,Variant,effect of a mutation on the interaction
1,L50E,with no effect
2,L2K,with no effect
3,L2A,with no effect
4,L2E,with no effect
5,I45A,with no effect
6,I45E,with no effect
7,I45K,with no effect
8,E32A,with no effect
9,E32K,disrupting interaction strength
10,R8K,with no effect
11,R8A,with no effect
12,R8E,with no effect
13,N19A,with no effect
14,N19E,with no effect
15,N19K,with no effect
16,G13E,with no effect
17,G13A,with no effect
18,G13K,with no effect
19,F30K,with no effect
20,F30E,with no effect
21,F30A,with no effect
22,F30S,disrupting interaction strength
23,S18E,with no effect
24,S18K,with no effect
25,S18A,with no effect

row,Variant,effect of a mutation on the interaction
1,A24K,with no effect
2,A24E,with no effect
3,P39A,with no effect
4,P39K,with no effect
5,P39E,with no effect
6,K3E,with no effect
7,K3A,with no effect
8,A6K,with no effect
9,A6E,with no effect
10,S28A,with no effect
11,S28K,with no effect
12,S28E,with no effect
13,P53A,with no effect
14,P53K,with no effect
15,P53E,with no effect
16,V26K,with no effect
17,V26A,with no effect
18,V26E,with no effect
19,M23K,with no effect
20,M23A,with no effect
21,M23E,with no effect
22,E25K,with no effect
23,E25A,with no effect
24,K7E,with no effect
25,K7A,with no effect

row,Variant,effect of a mutation on the interaction
1,N15E,with no effect
2,N15A,with no effect
3,N15K,with no effect
4,F41A,with no effect
5,F41K,with no effect
6,F41E,with no effect
7,S21A,with no effect
8,S21E,with no effect
9,S21K,with no effect
10,L56F,disrupting interaction strength
11,L56E,with no effect
12,L56A,with no effect
13,N20A,with no effect
14,N20E,with no effect
15,N20K,with no effect
16,V49A,with no effect
17,V49K,with no effect
18,V49E,with no effect
19,T47R,disrupting interaction strength
20,T47K,with no effect
21,T47E,with no effect
22,T47A,with no effect
23,S12E,with no effect
24,S12A,with no effect
25,S12K,with no effect

row,Variant,effect of a mutation on the interaction
1,M1E,with no effect
2,M1K,with no effect
3,M1A,with no effect
4,D44E,with no effect
5,D44A,with no effect
6,D44K,with no effect
7,P35S,disrupting interaction strength
8,P35K,with no effect
9,P35E,with no effect
10,P35R,disrupting interaction strength
11,P35T,disrupting interaction strength
12,P35A,with no effect
13,L11K,with no effect
14,L11A,with no effect
15,L11E,with no effect
16,M29K,with no effect
17,M29E,with no effect
18,M29A,with no effect
19,M29F,disrupting interaction strength
20,G38E,with no effect
21,G38A,with no effect
22,G38K,with no effect
23,K52I,disrupting interaction strength
24,K52A,with no effect
25,K52E,with no effect

row,Variant,effect of a mutation on the interaction
1,K52Y,disrupting interaction strength
2,L40K,with no effect
3,L40A,with no effect
4,L40E,with no effect
5,I17E,with no effect
6,I17A,with no effect
7,I17K,with no effect
8,C51S,disrupting interaction strength
9,C51A,with no effect
10,C51K,with no effect
11,C51E,with no effect
12,K54T,disrupting interaction strength
13,K54A,with no effect
14,K54Y,disrupting interaction strength
15,K54E,with no effect
16,E43A,with no effect
17,E43K,with no effect
18,K27S,disrupting interaction strength
19,K27L,disrupting interaction strength
20,K27A,with no effect
21,K27E,with no effect
22,K27Y,disrupting interaction strength
23,K36P,disrupting interaction strength
24,K36A,with no effect
25,K36E,with no effect

row,Variant,effect of a mutation on the interaction
1,K36Y,disrupting interaction strength
2,L55A,with no effect
3,L55K,with no effect
4,L55E,with no effect
5,D22K,with no effect
6,D22E,with no effect
7,D22A,with no effect
8,Q37K,with no effect
9,Q37E,with no effect
10,Q37A,with no effect
11,K14A,with no effect
12,K14L,disrupting interaction strength
13,K14E,with no effect
14,T16K,with no effect
15,T16A,with no effect
16,T16E,with no effect
17,M48E,with no effect
18,M48K,with no effect
19,M48A,with no effect
20,P9E,with no effect
21,P9A,with no effect
22,P9K,with no effect
23,R31A,with no effect
24,R31K,with no effect
25,R31E,with no effect
